Experimental data published in paper PMC2606918 (Molecular pharmacology, 2008).
Values belong to the molecule of their own block, whether it stands above or below them.

Columns and labels:
[1] = target: T1, GST-D2-IC3 (third intracellular loop of the rat dopamine D2L receptor) (Rattus norvegicus, UniProt P61169); assay: GST pull-down binding of purified arrestin to GST-D2-IC3
T1 sequence (P61169 211-371): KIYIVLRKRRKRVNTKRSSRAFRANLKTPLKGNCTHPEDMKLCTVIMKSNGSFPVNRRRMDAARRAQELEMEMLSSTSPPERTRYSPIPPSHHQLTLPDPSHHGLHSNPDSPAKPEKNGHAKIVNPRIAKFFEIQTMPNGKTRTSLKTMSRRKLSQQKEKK

[2] = target: T2, GST-D3-IC3 (third intracellular loop of the rat dopamine D3 receptor) (Rattus norvegicus, UniProt P19020); assay: GST pull-down binding of purified arrestin to GST-D3-IC3
T2 sequence (P19020 210-372): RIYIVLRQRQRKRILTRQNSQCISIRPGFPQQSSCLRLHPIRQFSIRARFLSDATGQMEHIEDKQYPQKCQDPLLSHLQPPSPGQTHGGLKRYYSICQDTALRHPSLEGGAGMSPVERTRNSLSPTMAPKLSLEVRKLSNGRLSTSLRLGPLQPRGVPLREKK

wild type D2 receptor = wild type D2 receptor (Rattus norvegicus, UniProt P61169); details: PTX 50 ng/ml overnight prior to agonist treatment
Sequence of wild type D2 receptor (P61169 whole entry): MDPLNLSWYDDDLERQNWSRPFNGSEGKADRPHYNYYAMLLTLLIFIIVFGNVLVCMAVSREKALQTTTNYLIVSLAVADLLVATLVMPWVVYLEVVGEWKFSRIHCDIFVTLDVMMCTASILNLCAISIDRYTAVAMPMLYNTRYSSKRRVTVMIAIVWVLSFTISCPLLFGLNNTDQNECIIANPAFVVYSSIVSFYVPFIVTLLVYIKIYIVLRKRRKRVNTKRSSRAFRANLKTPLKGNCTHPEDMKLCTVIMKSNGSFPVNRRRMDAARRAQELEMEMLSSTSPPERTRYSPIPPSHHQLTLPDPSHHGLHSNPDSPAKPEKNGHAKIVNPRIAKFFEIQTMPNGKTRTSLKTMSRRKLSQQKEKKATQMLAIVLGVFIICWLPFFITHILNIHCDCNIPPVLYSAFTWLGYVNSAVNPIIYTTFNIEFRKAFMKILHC

D2-A4 mutant receptor = D2-A4 mutant receptor (Rattus norvegicus, UniProt P61169, I212A/I214A/V215A/Y213A); details: PTX 50 ng/ml overnight prior to agonist treatment
Sequence of D2-A4 mutant receptor (P61169 whole entry I212A/Y213A/I214A/V215A, the tested form may be a part): as the sequence (P61169 whole entry) above, with I212A, Y213A, I214A, V215A counted along it

D2-IC3ΔNT5 = target: T3, D2-IC3ΔNT5 (Rattus norvegicus, UniProt P61169); assay: GST pull-down binding of arrestin3 to D2-IC3ΔNT5; details: versus D2-IC3; 400 ng fusion protein, 100 ng arrestin3
T3 sequence (P61169 216-371 limits assumed): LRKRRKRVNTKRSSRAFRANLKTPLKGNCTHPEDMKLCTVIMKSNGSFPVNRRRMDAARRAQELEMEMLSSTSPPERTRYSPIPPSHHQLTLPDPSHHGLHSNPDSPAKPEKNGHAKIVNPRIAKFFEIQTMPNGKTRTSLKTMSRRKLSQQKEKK

D2-IC3ΔNT10 = target: T4, D2-IC3ΔNT10 (Rattus norvegicus, UniProt P61169); assay: GST pull-down binding of arrestin3 to D2-IC3ΔNT10; details: versus D2-IC3; 400 ng fusion protein, 100 ng arrestin3
T4 sequence (P61169 221-371 limits assumed): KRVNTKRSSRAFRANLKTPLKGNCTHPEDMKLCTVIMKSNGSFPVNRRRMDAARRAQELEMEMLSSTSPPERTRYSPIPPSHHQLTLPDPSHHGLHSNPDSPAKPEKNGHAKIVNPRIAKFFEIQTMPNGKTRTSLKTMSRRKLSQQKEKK

[3] = target: purified bovine arrestin3 (bovine, UniProt P32120 1-420); assay: pull-down
Sequence of purified bovine arrestin3 (P32120 whole entry): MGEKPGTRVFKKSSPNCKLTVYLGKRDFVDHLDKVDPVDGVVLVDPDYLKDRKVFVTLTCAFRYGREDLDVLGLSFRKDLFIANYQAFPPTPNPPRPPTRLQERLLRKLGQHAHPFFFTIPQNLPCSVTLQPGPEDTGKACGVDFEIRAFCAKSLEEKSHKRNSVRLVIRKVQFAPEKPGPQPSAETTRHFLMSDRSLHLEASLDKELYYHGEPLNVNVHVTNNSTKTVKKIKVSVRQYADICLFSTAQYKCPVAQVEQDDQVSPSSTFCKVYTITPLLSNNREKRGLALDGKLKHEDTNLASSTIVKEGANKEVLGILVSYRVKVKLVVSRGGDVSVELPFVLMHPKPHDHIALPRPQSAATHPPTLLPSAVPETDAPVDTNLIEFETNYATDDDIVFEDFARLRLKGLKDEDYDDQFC

[4] = amount of arrestin3 bound to 300 ng of GST-IC3
[5] = rate of association, data not shown
[6] = saturation analysis, 300 ng GST-IC3, 30 min room temperature

- Bmax [1, 4]: 10.1 ± 0.6 ng
- half-time for binding [1, 5]: approximately 2 min
- time at which binding approached equilibrium [1, 5]: ≤ 15 min
- Kd [1, 6]: 72 ± 14 nM
- Kd ([1]; summary for D2-like receptor IC3 (D2-IC3 and D3-IC3), GST pull-down): 70 to 80 nM
- decrease of arrestin binding (D2-IC3ΔNT5): about 60%
- Bmax [2, 4]: 10.2 ± 0.6 ng
- Kd [2, 6]: 79 ± 14 nM
- decrease of arrestin binding (D2-IC3ΔNT10): about 60%
Molecule: Arrestin3: purified bovine arrestin3, non-visual arrestin also termed β-arrestin 2

- Kd [3]: 72 nM
B1: GST-D2-IC3 (GST fusion of the third intracellular loop of the rat dopamine D2L receptor, amino acids 211-371) (domain or fragment, UniProt P61169 211-371, looked up)
chain: KIYIVLRKRRKRVNTKRSSRAFRANLKTPLKGNCTHPEDMKLCTVIMKSNGSFPVNRRRMDAARRAQELEMEMLSSTSPPERTRYSPIPPSHHQLTLPDPSHHGLHSNPDSPAKPEKNGHAKIVNPRIAKFFEIQTMPNGKTRTSLKTMSRRKLSQQKEKK

- Kd [3]: 79 nM
B2: GST-D3-IC3 (GST fusion of the third intracellular loop of the rat dopamine D3 receptor, amino acids 210-372) (domain or fragment, UniProt P19020 210-372, looked up)
chain: RIYIVLRQRQRKRILTRQNSQCISIRPGFPQQSSCLRLHPIRQFSIRARFLSDATGQMEHIEDKQYPQKCQDPLLSHLQPPSPGQTHGGLKRYYSICQDTALRHPSLEGGAGMSPVERTRNSLSPTMAPKLSLEVRKLSNGRLSTSLRLGPLQPRGVPLREKK

Further lines, the molecule ahead of its results:

Molecule: Arrestin2: purified bovine arrestin2, non-visual arrestin also termed β-arrestin 1
- binding of arrestin2 ([1]; GST pull-down, in words): bound weakly
- binding of arrestin2 ([2]; GST pull-down, in words): bound weakly

Molecule: pertussis toxin [PTX]
- effect of PTX on activation of ERKs (wild type D2 receptor): greatly decreased
- effect of PTX on activation of ERKs (D2-A4 mutant receptor): greatly decreased
